15 molecules from patent US20200024322A1 (Eli Lilly, published 2020) can be followed below.

The target of experiment [1] is T1, human GLP-1 receptor (human, UniProt P43220 24-463).
T1 construct: whole, on cells; Used as crude membranes of stably transfected HEK293 cells; also called hGLP1R; hGLP-1R
The experiment in a line: SPA, [125I]-GLP-1 displacement, hGLP-1R membranes.

Experiment [2] addresses T2, human glucagon receptor (human, UniProt P47871 26-477).
T2 construct: whole, on cells; Used as crude membranes of stably transfected HEK293 cells; also called hGcgR; hGLcgR
The experiment in a line: SPA, [125I]-Gcg displacement, hGcgR membranes.

Experiment [3] has as its target T3, human GIP receptor (human, UniProt P48546 22-466).
T3 construct: whole, on cells; Used as crude membranes of stably transfected CHO cells; also called hGIPR
T3 sequence (looked up): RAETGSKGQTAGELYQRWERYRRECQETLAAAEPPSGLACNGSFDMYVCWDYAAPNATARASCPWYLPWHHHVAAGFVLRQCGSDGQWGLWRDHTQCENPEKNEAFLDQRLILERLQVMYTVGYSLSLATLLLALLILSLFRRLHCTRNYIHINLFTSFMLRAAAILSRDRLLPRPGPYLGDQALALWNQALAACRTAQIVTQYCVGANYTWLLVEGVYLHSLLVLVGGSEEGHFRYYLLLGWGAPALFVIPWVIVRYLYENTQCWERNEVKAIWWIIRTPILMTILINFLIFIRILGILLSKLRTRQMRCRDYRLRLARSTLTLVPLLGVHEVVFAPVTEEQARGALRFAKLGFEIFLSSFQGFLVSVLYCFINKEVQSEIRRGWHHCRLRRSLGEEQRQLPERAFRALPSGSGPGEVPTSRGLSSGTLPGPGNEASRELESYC
The experiment in a line: SPA, [125I]-GIP displacement, hGIPR membranes.

T2 sequence (P47871 26-477): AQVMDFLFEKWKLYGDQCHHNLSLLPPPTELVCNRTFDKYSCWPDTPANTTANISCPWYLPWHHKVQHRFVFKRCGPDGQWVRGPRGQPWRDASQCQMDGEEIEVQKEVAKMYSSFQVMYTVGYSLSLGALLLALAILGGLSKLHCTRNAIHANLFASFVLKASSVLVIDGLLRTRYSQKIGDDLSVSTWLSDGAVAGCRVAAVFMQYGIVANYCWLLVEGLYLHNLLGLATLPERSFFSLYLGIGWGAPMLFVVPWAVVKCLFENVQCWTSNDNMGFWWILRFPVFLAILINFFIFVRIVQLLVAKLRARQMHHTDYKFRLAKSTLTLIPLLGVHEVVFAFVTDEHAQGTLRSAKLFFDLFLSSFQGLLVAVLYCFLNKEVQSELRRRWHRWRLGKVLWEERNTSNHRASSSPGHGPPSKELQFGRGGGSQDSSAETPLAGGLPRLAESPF

B1: Example 4 (peptide)
peptide: YXEGTXTSDXSIXLDXKAQXEFIXXLIEGGPSSGAPPPS
modifications: not fully specified; Aib2; αMeF(2F)6; 4Pal10; αMeL13; Orn16; K17((2-[2-(2-Amino-ethoxy)-ethoxy]-acetyl)2-(γ-Glu)-CO-(CH2)16-CO2H); Aib20; D-Glu24; αMeY25; C-terminal NH2
As usually defined, the Ki is the equilibrium dissociation constant of an inhibitor or competing ligand from its target. Regarding B1, the Ki is 1.63 nM in experiment [1], 686 nM in experiment [2] and 0.0528 nM in experiment [3].

B2: Example 62 (peptide)
peptide: YXEGTFTSDYSIXLDKKAQXAFIEYLIEGG
modifications: Aib2; αMeL13; K17((2-[2-(2-Amino-ethoxy)-ethoxy]-acetyl)2-(γ-Glu)-CO-(CH2)18-CO2H); Aib20; C-terminal NH2
For the molecule B2, the Ki is 2.03 nM in experiment [1], 168 nM in experiment [2] and 0.0545 nM in experiment [3].

B3: Example 63 (peptide)
peptide: YXEGTFTSDYSIXLDEKAQXAFIEYLIEGG
modifications: Aib2; αMeL13; K17((2-[2-(2-Amino-ethoxy)-ethoxy]-acetyl)2-(γ-Glu)-CO-(CH2)18-CO2H); Aib20; C-terminal NH2
Take B3: the inhibition constant Ki in experiment [1] is 7.79 nM; in experiment [2], 273 nM; in experiment [3], 0.141 nM.

B4: Example 65 (peptide)
peptide: YXEGTFTSDYSIXLDTKAQXAFIEYLIEGG
modifications: Aib2; αMeL13; K17((2-[2-(2-Amino-ethoxy)-ethoxy]-acetyl)2-(γ-Glu)-CO-(CH2)18-CO2H); Aib20; C-terminal NH2
As for B4, the Ki in experiment [1] was 4.53 nM; in experiment [2] it was 194 nM; in experiment [3], 0.0643 nM.

B5: Example 64 (peptide)
peptide: YXEGTFTSDYSIXLDSKAQXAFIEYLIEGG
modifications: Aib2; αMeL13; K17((2-[2-(2-Amino-ethoxy)-ethoxy]-acetyl)2-(γ-Glu)-CO-(CH2)18-CO2H); Aib20; C-terminal NH2
Turning to B5, the Ki was found to be 4.86 nM in experiment [1], 260 nM in experiment [2] and 0.0866 nM in experiment [3].

B6: Example 57 (peptide)
peptide: YXEGTXTSDYSILLDKKAQXAFIEYLIEGGPSSGAPPPS
modifications: Aib2; αMeF6; K17((2-[2-(2-Amino-ethoxy)-ethoxy]-acetyl)2-(γ-Glu)-CO-(CH2)18-CO2H); Aib20; C-terminal NH2
Regarding B6, the Ki in experiment [1] was found to be 3 nM; in experiment [2], 26.1 nM; in experiment [3], 0.0583 nM.

B7: Example 68 (peptide)
peptide: YXEGTFTSDYXILLDKKAQXAFIEYLIEGGPSSGAPPPS
modifications: Aib2; αMeS11; K17((2-[2-(2-Amino-ethoxy)-ethoxy]-acetyl)2-(γ-Glu)-CO-(CH2)18-CO2H); Aib20; C-terminal NH2
B7: the Ki in experiment [1] came out at 1.58 nM; in experiment [2], 99.2 nM; in experiment [3], 0.0243 nM.

B8: Example 60 (peptide)
peptide: YXEGTFTSDYSIXLDXKAQXAFIEYLIEGGPSSGAPPPS
modifications: Aib2; αMeL13; Aib16; K17((2-[2-(2-Amino-ethoxy)-ethoxy]-acetyl)2-(γ-Glu)-CO-(CH2)18-CO2H); Aib20; C-terminal NH2
In the case of B8, the inhibition constant Ki in experiment [1] stood at 9.55 nM; in experiment [2], 237 nM; in experiment [3], 0.0655 nM.

B9: Example 67 (peptide)
peptide: YXEGTFTSDYSILLDKKAQXAXIEYLIEGGPSSGAPPPS
modifications: Aib2; K17((2-[2-(2-Amino-ethoxy)-ethoxy]-acetyl)2-(γ-Glu)-CO-(CH2)18-CO2H); Aib20; αMeF22; C-terminal NH2
For the molecule B9, the values for the Ki in experiment [1], in experiment [2] and in experiment [3] were 10.2 nM, 270 nM and 0.061 nM, respectively.

B10: Example 115 (peptide)
peptide: YXEGTXTSDYSIXLDEKAQXAFIEYLIEGGPSSGAPPPS
modifications: Aib2; αMeF6; αMeL13; K17((2-[2-(2-Amino-ethoxy)-ethoxy]-acetyl)2-(γ-Glu)-CO-(CH2)18-CO2H); Aib20; C-terminal NH2
For B10, the Ki came out at 3.43 nM in experiment [1], 9.89 nM in experiment [2] and 0.0302 nM in experiment [3].

B11: Example 74 (peptide)
peptide: YXEGTFTSDYSIXLDKKAQXAXIEYLIEGGPSSGAPPPS
modifications: Aib2; αMeL13; K17((2-[2-(2-Amino-ethoxy)-ethoxy]-acetyl)2-(γ-Glu)-CO-(CH2)18-CO2H); Aib20; αMeF22; C-terminal NH2
Consider B11, for which the values for the inhibition constant Ki in experiment [1], in experiment [2] and in experiment [3] were 5.99 nM, 69.8 nM and 0.0279 nM, respectively.

B12: Example 3 (peptide)
peptide: YXEGTXTSDYSIXLDXKAQXEFIXYLIEGGPSSGAPPPS
modifications: Aib2; αMeF(2F)6; αMeL13; Orn16; K17((2-[2-(2-Amino-ethoxy)-ethoxy]-acetyl)2-(γ-Glu)-CO-(CH2)18-CO2H); Aib20; D-Glu24; C-terminal NH2
As for B12, the inhibitory constant (Ki) in experiment [1] is 2.23 nM; in experiment [2], 242 nM; in experiment [3], 0.0458 nM.

B13: Example 116 (peptide)
peptide: YXEGTXTSDYSIXLDEKAQXEFIEYLIEGGPSSGAPPPS
modifications: Aib2; αMeF6; αMeL13; K17((2-[2-(2-Amino-ethoxy)-ethoxy]-acetyl)2-(γ-Glu)-CO-(CH2)18-CO2H); Aib20; C-terminal NH2
Turning to B13, the figures for the Ki in experiment [1], in experiment [2] and in experiment [3] were 6.8 nM, 137 nM and 0.0597 nM, respectively.

B14: Example 125 (peptide)
peptide: YXEGTXTSDYSIXLDKKAQXAFIEYLIEGGPSSGAPPPS
modifications: Aib2; αMeF6; αMeL13; K17((2-[2-(2-Amino-ethoxy)-ethoxy]-acetyl)2-(γ-Glu)2-CO-(CH2)18-CO2H); Aib20; C-terminal NH2
Regarding B14, the Ki in experiment [1] was 3.19 nM; in experiment [2], 54.4 nM; in experiment [3] it was 0.0624 nM.

B15: Example 149 (peptide)
peptide: YXEGTXTSDYSIXLDEKAQXEFIVYLIEGGPSSGAPPPS
modifications: Aib2; αMeF(2F)6; αMeL13; K17((2-[2-(2-Amino-ethoxy)-ethoxy]-acetyl)2-(γ-Glu)-CO-(CH2)18-CO2H); Aib20; C-terminal NH2
With B15, the Ki in experiment [1] stood at 26.1 nM; in experiment [2], 127 nM; in experiment [3], 0.0708 nM.
